Experimental data reported in PMC10344781 (Nature Biotechnology, 2023).
Where a chain is given by its changes, count along the chain named.

B1: scFv2 displayed on yeast (scFv, V domains shown)
VH: VLLQQSGPELVKPGASVKIPCKASGYTFTDYEMDWVKQSHGKSLEWIGSINPNNGGTMYNQKFKGKATLTVDKSSSAAYMEVRSLTSEDTAVYYCARKPYYGMNAWFAYWGQGTLVTVSA
VL: IQVTQSSSSFSVSLGDRVTITCKASEDIYNRLAWYQQKPGNAPRLLISGATSLETGVPDRFSGSGSRKDYTLIITSLQTEDVATYYCQQYYALPLTFGAGTKLELK
notes: 25-D1.16 scFv (PDB 3CVH) changed at the nine randomised peptide-contact CDR residues; also called clone 2
B2: scFv19 displayed on yeast (scFv, V domains shown)
VH: B1 VH with E32Y, S49T, M58V, Y101S, M103H, N104P
VL: B1 VL with L93F
notes: 25-D1.16 scFv (PDB 3CVH) changed at the nine randomised peptide-contact CDR residues; also called clone 19
B3: scFv12 displayed on yeast (scFv, V domains shown)
VH: B1 VH with E32D, M58I, Y101R, M103F, N104H
VL: B1 VL with A92G, L93Y
notes: 25-D1.16 scFv (PDB 3CVH) changed at the nine randomised peptide-contact CDR residues; also called clone 12

The binders below were run against T1, single-chain mouse Trp2/H2-K^b (scpMHC), biotinylated (Mus musculus, H2-Kb, UniProt P01901;P01887, biotin on the biotinylation tag (BirA)) (assay: flow cytometry on cells; yeast clones expressing TCRm scFv incubated with tenfold serially diluted target pMHC (monomer) for 1 h on ice, then streptavidin-AlexaFluor 647 for 15 min on ice). Details: one partner purified.
T1 construct: residues 180-188 of tyrosinase-related protein 2 (Trp2), mouse; linker, (G4S)3 or (G4S)4; beta2M; H2-K^b without the transmembrane domain; used as monomer, as streptavidin tetramer and on an SA chip; also called Trp2/H2-K^b tetramers; Trp2/H2-K^b monomer; source: Expi293, purified (Ni-NTA, Superdex 200)

Binding result, binds:
B1
B2
B3
